Results from patent US20090149339A1 (published 2009).
Ends that are not written are not given here. * marks the point of attachment. Biotin = O=C1N[C@H]2[C@H](CS[C@H]2CCCCC(=O)*)N1

B1: CD44 (long form) C-terminal PL peptide AA9L, biotinylated (peptide)
peptide: Biotin-QFMTADETRNLQNVDMKIGV
B2: Neurexin C-terminal PL peptide AA38L, biotinylated (peptide)
peptide: Biotin-SSAKSSNKNKKNKDKEYYV
B3: CD95 (Apo-1/Fas) C-terminal PL peptide AA13L, biotinylated (peptide)
peptide: Biotin-KDITSDSENSNFRNEIQSLV

Experiments:
[1] = biological target: T1, GST-MPP2 PDZ domain fusion protein (maguk p55 subfamily member 2 (DLG2) AA185-273; PDZ domain 1 of 1) (UniProt P08515 1-218 = GST); assay: A/G assays
T1 construct: also called MMP2
T1 sequence (P08515 1-218, tags or fused parts left off): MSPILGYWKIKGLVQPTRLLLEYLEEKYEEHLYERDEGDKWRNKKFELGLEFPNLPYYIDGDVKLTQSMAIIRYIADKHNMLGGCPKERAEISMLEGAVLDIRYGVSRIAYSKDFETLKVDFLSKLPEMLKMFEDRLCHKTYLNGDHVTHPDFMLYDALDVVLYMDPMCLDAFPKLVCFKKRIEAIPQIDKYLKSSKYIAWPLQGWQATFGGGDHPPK

[2] = biological target: T2, GST-RGS12 PDZ domain fusion protein (human regulator of G-protein signalling 12 AA35-103; PDZ domain 1 of 1) (human, UniProt P08515 1-218 = GST); assay: A/G assays
T2 construct: also called RSG12
T2 sequence (P08515 1-218, tags or fused parts left off): as above

[3] = biological target: T3, GST-SYN1a PDZ domain fusion protein (alpha1-syntrophin AA96-189; PDZ domain 1 of 1) (UniProt P08515 1-218 = GST); assay: A/G assays
T3 construct: also called SYN 1 alpha; SYNTR 1 alpha
T3 sequence (P08515 1-218, tags or fused parts left off): as above

[4] = biological target: T4, GST-KIAA0559 PDZ domain fusion protein (KIAA0559 AA766-870; PDZ1 of 1) (UniProt P08515 1-218 = GST); assay: A/G assays
T4 construct: also called K559
T4 sequence (P08515 1-218, tags or fused parts left off): as above

[5] = biological target: T5, GST-CBP PDZ domain fusion protein (Cytohesin binding protein HE AA85-175; PDZ domain 1 of 1) (UniProt P08515 1-218 = GST); assay: A/G assays
T5 construct: also called Prot
T5 sequence (P08515 1-218, tags or fused parts left off): as above

[6] = biological target: T6, GST-TAX2 PDZ domain fusion protein (human tax interaction protein 2 AA54-140; PDZ domain 1 of 1) (human, UniProt P08515 1-218 = GST); assay: A/G assays
T6 construct: also called TX 2
T6 sequence (P08515 1-218, tags or fused parts left off): as above

[7] = biological target: T7, GST-PSD95 PDZ domain fusion protein (human post-synaptic density protein 95 AA387-724; PDZ domains 1-3 of 3) (human, UniProt P08515 1-218 = GST); assay: A/G assays
T7 sequence (P08515 1-218, tags or fused parts left off): as above

[8] = biological target: T8, GST-TAX43 PDZ domain fusion protein (human tax interaction protein 43 AA15-85; PDZ domain 1 of 1) (human, UniProt P08515 1-218 = GST); assay: A/G assays
T8 construct: also called TX 43
T8 sequence (P08515 1-218, tags or fused parts left off): as above

[9] = biological target: T9, GST-NeDLG PDZ domain fusion protein (presynaptic protein sao102, neuroendocrine-dlg; PDZ domains 1-2 of 3) (UniProt P08515 1-218 = GST); assay: A/G assays
T9 construct: also called NeDLG1
T9 sequence (P08515 1-218, tags or fused parts left off): as above

[10] = biological target: T10, GST-TAX33 PDZ domain fusion protein (tax interaction protein 33 AA73-162; PDZ domain 1 of 1) (UniProt P08515 1-218 = GST); assay: A/G assays
T10 construct: also called TX33
T10 sequence (P08515 1-218, tags or fused parts left off): as above

[11] = biological target: T11, GST-TAX40 PDZ domain fusion protein (human tax interaction protein 40 AA35-137; PDZ domain 1 of 1) (human, UniProt P08515 1-218 = GST); assay: A/G assays
T11 construct: also called TX 40
T11 sequence (P08515 1-218, tags or fused parts left off): as above

[12] = biological target: T12, GST-TIAM1 PDZ domain fusion protein (T-lymphoma invasion and metastasis inducing protein 1 AA1001-1088); PDZ 1 … (UniProt P08515 1-218 = GST); assay: A/G assays
[13] = biological target: T13, GST-AF6 PDZ domain fusion protein (af-6 protein AA985-1077; PDZ domain 1 of 1) (UniProt P08515 1-218 = GST); assay: A/G assays
[14] = biological target: GST-PTN-4 PDZ domain fusion protein (protein-tyrosine phosphatase meg1 AA774-862; PDZ domain 1 of 1) (UniProt P08515 1-218 = GST); assay: A/G assays
Chain of GST-PTN-4 PDZ domain fusion protein (protein-tyrosine phosphatase meg1 AA774-862; PDZ domain 1 of 1) (P08515 1-218, tags or fused parts left off): as above

[15] = biological target: T14, GST-41.8 kD PDZ domain fusion protein (hypothetical 41.8 kD protein AA4-85; PDZ domain 1 of 1) (UniProt P08515 1-218 = GST); assay: A/G assays
T14 construct: also called hypoth

[16] = biological target: GST-NOS1 PDZ domain fusion protein (human neuronal nitric oxide synthase; PDZ domain 1 of 1) (human, UniProt P08515 1-218 = GST); assay: A/G assays
Chain of GST-NOS1 PDZ domain fusion protein (human neuronal nitric oxide synthase; PDZ domain 1 of 1) (P08515 1-218, tags or fused parts left off): as above

[17] = biological target: T15, GST-KIAA0303 PDZ domain fusion protein (KIAA0303 AA652-742; PDZ domain 1 of 1) (UniProt P08515 1-218 = GST); assay: A/G assays
T15 construct: also called K303
T15 sequence (P08515 1-218, tags or fused parts left off): as above

[18] = biological target: T16, GST-DVL1 PDZ domain fusion protein (human dishevelled segment polarity protein homolog AA248-340); PDZ domain … (human, UniProt P08515 1-218 = GST); assay: A/G assays
T16 sequence (P08515 1-218, tags or fused parts left off): as above

[19] = biological target: T17, GST-KIAA0316 PDZ domain fusion protein (KIAA0316 AA197-284; PDZ domain 1 of 1) (UniProt P08515 1-218 = GST); assay: A/G assays
T17 construct: also called K316

[20] = biological target: GST-LIM PDZ domain fusion protein (Human LIM protein AA29-112; PDZ domain 1 of 1) (human, UniProt P08515 1-218 = GST); assay: A/G assays
Chain of GST-LIM PDZ domain fusion protein (Human LIM protein AA29-112; PDZ domain 1 of 1) (P08515 1-218, tags or fused parts left off): as above

[21] = biological target: T18, GST-CASK PDZ domain fusion protein (CASK AA495-584; PDZ domain 1 of 1) (mouse, UniProt P08515 1-218 = GST); assay: A/G assays
T18 construct: also called mCASK
T18 sequence (P08515 1-218, tags or fused parts left off): as above

[22] = biological target: GST-MINT3 PDZ domain fusion protein (human MINT3 AA11-52; PDZ domain 1 of 1) (human, UniProt P08515 1-218 = GST); assay: A/G assays
Chain of GST-MINT3 PDZ domain fusion protein (human MINT3 AA11-52; PDZ domain 1 of 1) (P08515 1-218, tags or fused parts left off): as above

[23] = biological target: GST-LIMK2 PDZ domain fusion protein (human LIM domain kinase 2 AA185-275; PDZ domain 1 of 1) (human, UniProt P08515 1-218 = GST); assay: A/G assays
Chain of GST-LIMK2 PDZ domain fusion protein (human LIM domain kinase 2 AA185-275; PDZ domain 1 of 1) (P08515 1-218, tags or fused parts left off): as above

[24] = biological target: T19, GST-MPP1 PDZ domain fusion protein (55 Kd erythrocyte membrane protein AA101-186; PDZ domain 1 of 1) (UniProt P08515 1-218 = GST); assay: G assay
T19 sequence (P08515 1-218, tags or fused parts left off): as above

[25] = biological target: T20, GST-prIL16 PDZ domain fusion protein (putative interleukin 16 precursor AA170-383; PDZ domains 1-2 of 2) (UniProt P08515 1-218 = GST); assay: G assay
T20 sequence (P08515 1-218, tags or fused parts left off): as above

[26] = biological target: T2, GST-RGS12 PDZ domain fusion protein …; assay: A assay
[27] = biological target: T3, GST-SYN1a PDZ domain fusion protein …; assay: A assay
[28] = biological target: T8, GST-TAX43 PDZ domain fusion protein …; assay: A assay
[29] = biological target: T19, GST-MPP1 PDZ domain fusion protein (55 …); assay: A assay
[30] = biological target: T11, GST-TAX40 PDZ domain fusion protein …; assay: A assay
[31] = biological target: T12, GST-TIAM1 PDZ domain fusion protein …; assay: A assay
[32] = biological target: T13, GST-AF6 PDZ domain fusion protein (af-6 …); assay: A assay
[33] = biological target: T14, GST-41.8 kD PDZ domain fusion protein …; assay: A assay
[34] = biological target: T20, GST-prIL16 PDZ domain fusion protein …; assay: A assay
[35] = biological target: T16, GST-DVL1 PDZ domain fusion protein …; assay: A assay
[36] = biological target: T7, GST-PSD95 PDZ domain fusion protein …; assay: A and G assays
[37] = biological target: T9, GST-NeDLG PDZ domain fusion protein …; assay: G assay
[38] = biological target: T18, GST-CASK PDZ domain fusion protein …; assay: G assay
[39] = biological target: T7, GST-PSD95 PDZ domain fusion protein …; assay: G assay, peptide titrated on immobilized GST-PDZ, saturation fit (apparent affinity)
From the text: (§1) FIGS. 2A and 2B show the Apparent Affinity Determination for PDZ-Ligand Interactions. […] The binding to GST alone (<0.2 OD units) was subtracted from the binding to the fusion proteins to obtain the signal at each peptide concentration.

[40] = biological target: T9, GST-NeDLG PDZ domain fusion protein …; assay: as above
From the text: as §1

[41] = biological target: T19, GST-MPP1 PDZ domain fusion protein (55 …); assay: A/G assays
[42] = biological target: T20, GST-prIL16 PDZ domain fusion protein …; assay: A/G assays

| Binder | binding result [1] | binding result [2] | binding result [3] | binding result [4] | binding result [5] | binding result [6] | binding result [8] | binding result [10] | binding result [11] | binding result [12] | binding result [13] | binding result [14] | binding result [16] | binding result [17] | binding result [18] | binding result [19] | binding result [20] | binding result [21] | binding result [22] | binding result [23] | other results |
| --- | --- | --- | --- | --- | --- | --- | --- | --- | --- | --- | --- | --- | --- | --- | --- | --- | --- | --- | --- | --- | --- |
| B1 | no binding | no binding | no binding | no binding | no binding | no binding | no binding | no binding | no binding | no binding | no binding | no binding | no binding | no binding | no binding | no binding | no binding | no binding | no binding | no binding | binding result [7]: no binding; binding result [9]: no binding; binding result [15]: no binding; binding result [24]: binds; binding result [25]: binds |
| B2 | no binding | – | – | no binding | no binding | no binding | – | no binding | – | – | – | no binding | no binding | no binding | – | no binding | no binding | – | no binding | no binding | binding result [26]: binds; binding result [27]: binds; binding result [28]: binds; binding result [29]: binds; binding result [30]: binds; binding result [31]: binds; binding result [32]: binds; binding result [33]: binds; binding result [34]: binds; binding result [35]: binds; binding result [36]: binds; binding result [37]: binds; binding result [38]: binds |
| B3 | no binding | no binding | no binding | no binding | no binding | no binding | no binding | no binding | no binding | no binding | no binding | no binding | no binding | no binding | no binding | no binding | no binding | no binding | no binding | no binding | Kd [39]: 85 µM; Kd [40]: 54 µM; binding result [41]: no binding; binding result [42]: no binding |
